Laboratory results taken from article PMC9792514, “C-type lectin-like receptor (CLEC)-2, the ligand of podoplanin, induces morphological changes in podocytes” (Scientific Reports, 2022).

T1: mouse podoplanin (PDPN) (mouse (endogenous in primary cultured …, UniProt Q62011 23-172))
T1 sequence (looked up): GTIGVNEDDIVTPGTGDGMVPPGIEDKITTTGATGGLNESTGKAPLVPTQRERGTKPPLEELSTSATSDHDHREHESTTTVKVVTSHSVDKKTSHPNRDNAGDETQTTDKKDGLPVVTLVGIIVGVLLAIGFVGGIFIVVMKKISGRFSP

B1: StepTagII-3FLAG-CLEC-2, a fusion of StrepTactin FLAG double tags and the C-terminal extracellular domain of mouse CLEC-2 (51-229) (domain or fragment, UniProt Q9JL99 51-229, looked up)
chain: GIMSVTQQKYLLAEKENLSATLQQLAKKFCQELIRQSEIKTKSTFEHKCSPCATKWRYHGDSCYGFFRRNLTWEESKQYCTEQNATLVKTASQSTLDYIAERITSVRWIGLSRQNSKKDWMWEDSSVLRKNGINLSGNTEENMNCAYLHNGKIHPASCKERHYLICERNAGMTRVDQLL

What was measured:
[1] = target: Fc protein (control); assay: native gel or EMSA; Blue Native PAGE of the purified recombinant proteins in aqueous solution
[2] = target: T1, mouse podoplanin (PDPN); assay: cell-based or functional assay

Row | Molecule | stoichiometry N [1] | pERM/ERM ratio by Western blot of glomerular lysate after infusion of FLAG-CLEC-2 (5 ug/g body weight), against controls [2]
1 | Fc protein (control) (domain or fragment) | 4 | 
2 | B1 |  | 0.65 fold
